Assay [1] has as its target ACE2 on Vero-E6 cells (African green monkey (endogenous in Vero-E6)). Briefly: flow cytometry on cells. (In flow cytometry, cells or beads pass a laser one at a time.)
Assay [2] concerns the target human ACE2-Fc (human) (UniProt Q9BYF1). The assay is described as follows: BLI. A general note: BLI is a label-free optical method that tracks binding on a fibre tip over time.

We go through one substance from PMC9333441.

As for “soluble epitope-tagged RBD of Wuhan-Hu-1 SARS-CoV-2 (domain or fragment)”, in assay [1], the EC50 is 17.4 nM. Further, the Kd in assay [2] worked out at 9.3 nM.

One may read the EC50 as the concentration at which the effect is half-maximal. Broadly, the Kd is the equilibrium constant for the complex coming apart.
